{
  "source": "paper PMC6299498",
  "about": "(BMC Veterinary Research, 2018)",
  "biological_target": "T1, SLA-2*HB01 heavy chain (swine leukocyte antigen 2, haplotype HB01 allele), extracellular domain (Sus scrofa)",
  "T1 construct": "SLA-2 haplotype HB01 allele, swine MHC class I heavy chain, extracellular domain stated as 275 amino acids; also called heavy chain of SLA-2*HB01",
  "T1 MHC heavy": "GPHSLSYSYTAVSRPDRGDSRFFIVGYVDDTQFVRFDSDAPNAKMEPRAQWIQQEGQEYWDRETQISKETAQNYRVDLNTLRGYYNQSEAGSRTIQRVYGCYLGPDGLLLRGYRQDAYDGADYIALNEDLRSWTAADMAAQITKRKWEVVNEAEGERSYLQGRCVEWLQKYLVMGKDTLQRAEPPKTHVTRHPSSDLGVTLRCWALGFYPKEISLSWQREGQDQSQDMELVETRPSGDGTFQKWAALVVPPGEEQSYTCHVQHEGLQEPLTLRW",
  "assay": "SEC",
  "conditions": "both partners purified",
  "data": [
    {"binder": "ALLRSATYY", "values": [
      {"measurement": "binding result", "result": "binds"}
    ]}
  ]
}
